This is an account of results in US10072299B2, “Antibodies against epidermal growth factor receptor (EGFR) and uses thereof” (Merrimack Pharmaceuticals, Inc., priority 2011, dated 2018).

For assay [1] the following is noted: conversion of irinotecan by nonspecific carboxylesterases; cited from earlier work.
For another assay, the system named is phospho-EGFR. As to the kind of experiment: phospho-EGFR ELISA in A431 cells. The conditions noted are these: EGF stimulated. Format: cell-based, human.
Another assay concerns phospho-ERK. As to the kind of experiment: phospho-ERK ELISA in A431 cells. Format: cell-based, human. (In general: In an ELISA, binding on a coated surface is turned into a signal by an enzyme label.)
In another assay the target is mouse EGFR (Mus musculus, UniProt Q01279). As to the kind of experiment: Cross reactivity with mouse EGFR. It counts as binding.

Protocol for phospho-ERK: Cells are serum starved in 1% FBS medium with antibiotics and 2 mM L-glutamine for about 20 hours at 37° C. and 5% carbon dioxide. Cells are then preincubated with varying concentrations of anti-EGFR antibodies for 2 hrs, and then stimulated with human EGF ligand (50 ng/ml) (PeproTech, cat # AF-100-15) for 10 minutes at 37° C. and 5%/carbon dioxide. […] Lysates are either analyzed immediately by ELISA for ERK (a downstream effector of EGFR) and EGFR phosphorylation, or frozen at −80° C. until use.
The phospho-ERK ELISA is performed similarly to the phospho-EGFR ELISA with the following changes: Human pERK ELISA Duoset kit is purchased from R&D Systems (cat# DYC1018-5) and used as recommended by the manufacturer.
A431 cells were treated with a dilution series of antibody and phospho-ERK inhibition measured by ELISA.
Experiments were performed with rhEGF (PeproTech) dosed at a concentration of 50 ng/mL or 500 ng/mL.

`CCc1c2c(nc3ccc(O)cc13)-c1cc3c(c(=O)n1C2)COC(=O)[C@]3(O)CC` [SN-38, 7-Ethyl-10-hydroxy-camptothecin]: the “activity of metabolite relative to irinotecan” value in assay [1] is reported as 100-1000 fold.

B1: P3X: affinity matured anti-EGFR monoclonal antibody (Bin3) of parental ch; VH SEQ ID NO: 23, VL SEQ ID NO: 24 (antibody, V domains shown)
VH: MGFGLSWLFLVAILKGVQCQVQLVQSGAEVKKPGASVKVSCKASGYAFTSYGINWVRQAPGQGLEWMGWISAYNGNTYYAQKLRGRVTMTTDTSTSTAYMELRSLRSDDTAVYYCARDLGGYGSGSVPFDPWGQGTLVTVSS
VL: MGTPAQLLFLLLLWLPDTTGEIVMTQSPATLSVSPGERATLSCRASQSVSSNLAWYQQKPGQAPRLLIYGASTRATGIPARFSGSGSGTEFTLTISSLQSEDFAVYYCQDYRTWPRRVFGGGTKVEIK
In the case of B1, the “phospho-EGFR inhibition, single antibody (in words)” value with phospho-EGFR is reported as “partial phospho-EGFR inhibition”.

B2: P1X: affinity matured anti-EGFR monoclonal antibody (Bin1) of parental ca; VH SEQ ID NO: 19, VL SEQ ID NO: 20 (antibody, V domains shown)
VH: MGFGLSWLFLVAILKGVQCQVQLVQSGAEVKKPGSSVKVSCKASGGTFSSYAISWVRQAPGQGLEWMGSIIPIFGTVNYAQKFQGRVTITADESTSTAYMELSSLRSEDTAVYYCARDPSVNLYWYFDLWGRGTLVTVSS
VL: MGTPAQLLFLLLLWLPDTTGDIQMTQSPSTLSASVGDRVTITCRASQSISSWWAWYQQKPGKAPKLLIYDASSLESGVPSRFSGSGSGTEFTLTISSLQPDDFATYYCQQYHAHPTTFGGGTKVEIK
As for B2, in the assay on phospho-ERK (80 nM of EGF ligand), the “phospho-ERK inhibition with 80 nM EGF (in words)” value is “partial”. Further, the “phospho-ERK inhibition (in words)” value in the assay on phospho-ERK (EGF 50 ng/ml, dilution series) is reported as “dose-dependent inhibition of phospho-ERK activity”. Besides, in the assay with mouse EGFR, the “cross reaction with (binding to) mouse EGFR” value was “cross reacts with (binds to) mouse EGFR”.
